# Test results: patent publication US20250129167A1
# Target: PD-L1 on CHO-PD-L1 cells (Promega blockade system) (UniProt Q9NZQ7)
# Sequence (Q9NZQ7 19-290 limits assumed): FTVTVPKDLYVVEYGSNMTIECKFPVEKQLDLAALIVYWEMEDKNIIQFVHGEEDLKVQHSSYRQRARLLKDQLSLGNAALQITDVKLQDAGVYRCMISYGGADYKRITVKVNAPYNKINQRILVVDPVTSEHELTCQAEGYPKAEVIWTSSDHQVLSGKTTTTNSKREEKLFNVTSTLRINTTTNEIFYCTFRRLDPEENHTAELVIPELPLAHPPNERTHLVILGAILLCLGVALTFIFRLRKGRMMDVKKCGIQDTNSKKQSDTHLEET
substance,measurement,value
Tecentriq (antibody),"EC50 (read off the curve); luciferase fold induction, Promega CHO-PD-L1 / PD-1 Jurkat assay",0.1 nM
